This note sets out measurements from patent publication US6248520, “Nucleic acid molecules encoding nuclear hormone receptor coactivators and uses thereof” (The Rockefeller University, dated 2001).

This test has as its target T1, human thyroid hormone receptor α (TRα-1), intact (human, UniProt P10827-2).
T1 sequence: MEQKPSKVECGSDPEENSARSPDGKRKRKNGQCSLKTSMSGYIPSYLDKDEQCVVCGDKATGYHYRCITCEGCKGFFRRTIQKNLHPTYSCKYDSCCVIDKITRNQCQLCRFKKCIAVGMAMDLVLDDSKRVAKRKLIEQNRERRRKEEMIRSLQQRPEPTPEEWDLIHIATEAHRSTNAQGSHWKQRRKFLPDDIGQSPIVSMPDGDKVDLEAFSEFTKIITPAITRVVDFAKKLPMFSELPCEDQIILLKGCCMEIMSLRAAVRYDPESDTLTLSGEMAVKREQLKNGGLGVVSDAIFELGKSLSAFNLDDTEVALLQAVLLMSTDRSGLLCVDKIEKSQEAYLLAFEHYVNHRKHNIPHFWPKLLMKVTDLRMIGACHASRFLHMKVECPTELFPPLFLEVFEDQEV
As to the kind of experiment: Far Western: 35S-labelled TRα on blotted TR-TRAP complex (TRAP100 is one of the other TRAPs). The method, then: For coimmunoprecipitation (7), 2 μl of anti-FLAG M2 affinity gel (Kodak) and 3 μl of ^35S-labeled input proteins were used. For Far Western analyses, 500 ng of purified TR-TRAP complex was resolved by SDS-PAGE and transferred onto a nitrocellulose membrane. The blots were probed with in vitro translated, ^35S-labeled human TRα-1 or TRα-1 C-terminus (residues 122–410) in the presence and absence of 10^-7 M T_3.
Figure 7A: FIG. 7. Ligand-dependent interaction between TRα and TRAP220. (A) Far Western. 500 ng of purified TR-TRAP complex was separated by SDS-PAGE (8% gel), blotted and probed with ^35S-labeled full length (TR) and C-terminal (TRα-C) hTRα in the presence and absence of 10^-7 M […] (T_3). The arrow head indicates the position of the TRAP220 band. (B) Co-immunoprecipitation of TR-TRAP220 from in vitro translated products. The indicated combinations of ^35S-labeled TRAP220, TRAP100 and FLAG-TRα were incubated in the presence and absence of […] (T_3), and subjected to immunoprecipitation with anti-FLAG antibodies (M2 agarose) that recognizes only FLAG-tagged TRα. Figure 7B: Figure 8A: FIG. 8. Nuclear hormone receptor interactions with […] and TRAP100. (A) Ligand-dependent interactions of GST-TRAP220/1 and 2 with ^35S-labeled TRα. […]

B1: Thyroid Receptor-associated protein (TRAP) 100 (other)
chain: MKVVNLKQAILQAWKERWSDYQWAINMKKFFPKGATWDILNLADALLEQAMIGPSPNPLILSYLKYAISSQMVSYSSVLTAISKFDDFSRDLCVQALLDIMDMFCDRLSCHGKAEECIGLCRALLSALHWLLRCTAASAERLREGLEAGTPAAGEKQLAMCLQRLEKTLSSTKNRALLHIAKLEEASSWTAIEHSLLKLGEILANLSNPQLRSQAEQCGTLIRSIPTMLSVHAEQMHKTGFPTVHAVILLEGTMNLTGETQSLVEQLTMVKRMQHIPTPLFVLEIWKACFVGLIESPEGTEELKWTAFTFLKIPQVLVKLKKYSHGDKDFTEDVNCAFEFLLKLTPLLDKADQRCNCDCTNFLLQECGKQGLLSEASVNNLMAKRKADREHAPQQKSGENANIQPNIQLILRAEPTVTNILKTMDADHSKSPEGLLGVLGHMLSGKSLDLLLAAAAATGKLKSFARKFINLNEFTTYGSEESTKPASVRALLFDISFLMLCHVAQTYGSEVILSESRTGAEVPFFETWMQTCMPEEGKILNPDHPCFRPDSTKVESLVALLNNSSEMKLVQMKWHEACLSISAAILEILNAWENGVLAFESIQKITDNIKGKVCSLAVCAVAWLVAHVRMLGLDEREKSLQMIRQLAGPLFSENTLQFYNERVVIMNSILERMCADVLQQTATQIKFPSTGVDTMPYWNLLPPKRPIKEVLTDIFAKVLEKGWVDSRSIHIFDTLLHMGGVYWFCNNLIKELLKETRKEHTLRAVELLYSIFCLDMQQVTLVLLGHILPGLLTDSSKWHSLMDPPGTALAKLAVWCALSSYSSHKGQASTRQKKRHREDIEDYISLFPLDDVQPSKLMRLLSSNEDDANILSSPTDRSMSSSLSASQLHTVNMRDPLNRVLANLFLLISSILGSRTAGPHTQFVQWFMEECVDCLEQGGRGSVLQFMPFTTVSELVKVSAMSSPKVVLAITDLSLPLGRQVAAKAIAAL
B1: the binding result was “no binding”.
